Measurements published in paper PMC3084761.

Biological target: OS-9 fused to the N-terminus of EYFP (pEYFP-N1-OS-9) (human) (UniProt Q13438)
Test: FRET or BRET; live-cell confocal FRET of ECFP (donor) and EYFP (acceptor) fusions in HEK293 cells transfected 48 h; acceptor/donor plasmid ratios 1:1 to 5:1; FRET efficiency against A/D ratio fitted to a 1:1 binding model

OS-9 fused to the N-terminus of EYFP (pEYFP-N1-OS-9) (human), sequence (Q13438 26-667): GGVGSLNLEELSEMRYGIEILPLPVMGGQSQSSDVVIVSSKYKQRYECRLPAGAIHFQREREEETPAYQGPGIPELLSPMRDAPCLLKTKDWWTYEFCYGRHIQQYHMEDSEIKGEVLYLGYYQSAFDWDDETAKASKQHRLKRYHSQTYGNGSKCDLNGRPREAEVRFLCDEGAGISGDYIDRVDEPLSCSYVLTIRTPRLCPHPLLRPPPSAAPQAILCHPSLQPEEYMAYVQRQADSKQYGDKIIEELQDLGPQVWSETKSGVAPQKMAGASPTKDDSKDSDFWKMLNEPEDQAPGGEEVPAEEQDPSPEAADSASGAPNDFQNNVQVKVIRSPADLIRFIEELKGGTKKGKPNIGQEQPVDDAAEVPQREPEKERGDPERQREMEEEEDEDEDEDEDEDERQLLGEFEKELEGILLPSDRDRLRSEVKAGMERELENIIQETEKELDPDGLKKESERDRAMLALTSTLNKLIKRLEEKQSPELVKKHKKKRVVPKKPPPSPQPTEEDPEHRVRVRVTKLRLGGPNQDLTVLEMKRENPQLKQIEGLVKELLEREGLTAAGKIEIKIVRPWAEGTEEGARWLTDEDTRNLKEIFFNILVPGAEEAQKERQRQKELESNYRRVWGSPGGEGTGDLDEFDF

“PHD2-ECFP (PHD2 coding sequence in pECFP-N1) (from UniProt Q9GZT9 1-426) (enzyme)” was tested, and the maximum FRET efficiency was < 10%.
